Measurements as given in article PMC10154330, “Machine learning-driven multifunctional peptide engineering for sustained ocular drug delivery” (Nature Communications, 2023).
Read-outs that look alike come from different tables or passages of the source. One block for each compound: values may come before it. Peptide text beside a SMILES is read from it. * marks the point of attachment. X1 = CC(C)[C@H](NC(=O)CCCCCN1C(=O)CC(*)C1=O)C(=O)N[C@@H](CCCNC(N)=O)C(=O)Nc1ccc(C[N+]2=C(Nc3ccc4nccnc4c3Br)NCC2)cc1

How the values were obtained:
[1] = test system: melanin nanoparticles (mNPs); assay: In vitro melanin binding assay (binding capacity and Kd, RED device, HPLC); set-up: species or system Sepia officinalis; conditions: for Binding Capacity (mole/mg melanin) / Kd: binding capacity and dissociation constant of ocular drugs, melanin
Description: The solutions (400 µL) were then mixed thoroughly with 400 µL of 1 mg/mL mNPs in pH 6.5 PBS solution and transferred to the inner reservoir of the rapid equilibrium dialysis (RED) device inserts (8 K MWCO). The outer reservoir was filled with 800 µL of pH 6.5 PBS solution. The samples were incubated on an orbital shaker with temperature control at 37 °C and 300 rpm for 48 h (n = 3). The solutions from outer reservoir (free drug) were than collected and transferred to an autosampler vial for HPLC analysis (Prominence LC2030, Shimadzu, Columbia, MD) with photodiode-array detection (PDA) system. […] The amount of bound drug was used to calculate the binding capacity (mol drug/mg melanin) and the dissociation constant (Kd) as previously described[20],[34].

[2] = In vitro stability of HR97-brimonidine conjugate in human aqueous or vitreous; assay type: in vitro ADME; conditions: for remaining at 24 h, 1 mg/mL / remaining at 168 h, 1 mg/mL / remaining at 336 h, 1 mg/mL / remaining at 672 h, 1 mg/mL: male, human, human aqueous humor (donor eyes, 0.02 µm filtered), stability in human aqueous humor, read-out: Normalized HR97-VC-PAB-brimonidine (%)
Description: Two pairs of human donor eyes were obtained from the Lions Gift of Sight under protocol IRB00056984 approved by the Johns Hopkins University School of Medicine Institutional Review Board. Both donors were male with an mean age of 74.5. The post-mortem times ranged from 35–40 h. The eyes were kept at 4 °C during transport and arrived within 48 h post-mortem. The vitreous and aqueous were first isolated and subsequently combined and filtered through the 0.02 µm syringe filter to remove cell debris. HR97-brimonidine (1 mg/mL) was incubated with human aqueous or vitreous (700 µL) at 37 °C (n = 3). On days 0, 1, 7, 14, 21 and 28, 100 µL of the solutions were collected, diluted with 900 µL of acetonitrile, and characterized by HPLC (Prominence LC2030, Shimadzu) with Luna® 5 µm C18(2) 100 Å LC column 250 × 4.6 mm (Phenomenex). The elution flow rate was 1 mL/min and with gradient of 10/90/90/10% solvent B (TFA 0.1% in ACN) in 1/11/13/15 min at λmax = 250 nm for HR97-brimonidine (RT = 4.6 min).

[3] = test system: intraocular pressure; assay: IOP measurement in normotensive Dutch Belted rabbits; assay type: in vivo
Description: (§1) For the IOP measurements in normotensive rabbits, Dutch Belted rabbits (2–3 kg) were used (n = 5). IOP was measured with a hand-held rebound tonometer icareTONOVET (Vantaa, Finland) in the awake and gently restrained rabbit. Each rabbit was acclimatized to the IOP measurement procedure for at least 5 days to obtain a stable background IOP reading. A mean of three IOP measurements for an individual eye were taken every other day for 6 days (3 times in total) and used as a baseline value. For the ICM injection procedure, rabbits were anesthetized with ketamine/xylazine and received topical anesthesia with 0.5% proparacaine hydrochloride. A corneal pre-puncture was performed with a 30 G needle, followed with a single bolus ICM injection of 200 µg (mass of brimonidine) of HR97-brimonidine or brimonidine tartrate solution in 100 µL saline using a 28 G needle. After the procedure, topical bacitracin-neomycin-polymyxin ophthalmic ointment was applied to both eyes to prevent infection and dry eyes. On day 7, an ophthalmologist masked to treatment evaluate the HR97-brimonidine injected eyes with the following items: functionality of lids, lashes, conjunctiva, cornea transparency, pigmentation of corneal endothelium, depth of anterior chambers, inflammation, fibrin strands, and symmetry of the lens[113]. […] In a separate study, a corneal pre-puncture was performed with a 30 G needle, followed with a single bolus ICM injection of 200 µg (mass of brimonidine) containing a physical mixture of unconjugated HR97 and brimonidine tartrate (HR97 + brimonidine), the equivalent amount of HR97 peptide alone, or saline alone in 100 µL saline. On day 7, day 14, day 21, and day 28, an ophthalmologist masked to treatment performed the same safety evaluations described above. IOP was measured on days 2, 3, 4, 5, 6, 7, 8, 10, 12, 14, 16, 18, and 20 after the ICM injection, and change in IOP from the baseline (ΔIOP) was reported. The mean of three IOP measurements was taken for each eye by one observer, and then confirmed by a masked observer. Alternatively, a single topical eye drop (Alphagan® P 0.1%, 50 µL) was given (n = 5). The IOP were measured immediately before the topical dosing (0 h), and at 2, 4, 6 and 8 h after the eyedrop administration. For the pharmacokinetics studies, rabbits (n = 4 per group) received a single ICM injection with 200 µg (mass of brimonidine) HR97-brimonidine as described above. Rabbits were sacrificed 1, 7, 14, 28 days after the injection, and iris, aqueous, and retina were collected for measuring the brimonidine concentration.

[4] = test system: human cathepsins B, K, L, and S; assay: Cathepsin cleavage assay
[5] = Brimonidine in ocular tissues after ICM injection (LC-MS/MS); conditions: LC-MS/MS
Description: as §1
Brimonidine concentrations in ocular tissues were measured by liquid chromatography-tandem mass spectrometry (LC-MS/MS) as previously described. All samples were collected in pre-weighed tubes and stored at −80 °C until processing for analysis. Tissue samples were homogenized in 100–600 μL 1 × PBS using a Bullet Blender® (Next Advance, Inc, Troy, NY, USA) before extraction. Brimonidine were extracted from 15 to 50 μL of tissue homogenates with 50 μL of acetonitrile containing 50/50/2.5 ng/mL of the internal standards. The top layer was then transferred to an autosampler vial for LC-MS/MS analysis after centrifugation. All ocular tissue samples were analyzed using a 1 × PBS standard curve for brimonidine. […] The column effluent was monitored using a 5500 mass-spectrometric detector (Sciex) using electrospray ionization operating in positive mode. The mobile phase A was water containing 0.1% formic acid and mobile phase B was acetonitrile containing 0.1% formic acid. The gradient started with mobile phase B held at 20% for 0.5 min and increased to 100% over 0.5 min; 100% mobile phase B was held for 1 min and then returned to 20% mobile phase B and allowed to equilibrate for 1 min.

[6] = Ocular safety evaluation / ocular grading after ICM injection; conditions: single ICM injection, 200 µg brimonidine equivalent
Description: as §1

[7] = 28 days after single ICM injection of HR97-brimonidine (200 µg brimonidine equivalent), n = 3-4

Compound: CCN(CC)CCCC(C)Nc1ccnc2cc(Cl)ccc12 (stereo not shown) [Chloroquine]
Binding Capacity (mole/mg melanin) [1]: 3.8e-7 mole/mg melanin
Kd [1]: 76 µM

Compound: CC(C)[C@H](NC(=O)CCCCCN1C(=O)CC(SC[C@H](NC(=O)[C@H](CCCNC(=N)N)NC(=O)[C@@H]2CCCN2C(=O)[C@H](CCCCN)NC(=O)[C@H](CCCNC(=N)N)NC(=O)[C@H](CCCCN)NC(=O)[C@H](CCCNC(=N)N)NC(=O)[C@H](CCCNC(=N)N)NC(=O)[C@H](CCCCN)NC(=O)CNC(=O)[C@H](CO)NC(=O)[C@@H](N)Cc2ccccc2)C(=O)O)C1=O)C(=O)N[C@@H](CCCNC(N)=O)C(=O)Nc1ccc(C[N+]2=C(Nc3ccc4nccnc4c3Br)NCC2)cc1 (stereo partly shown) [HR97-VC-PAB-brimonidine] (H-FSGKRRKRKPRC(X1)-OH; N-terminus and C-terminus assumed)
remaining at 24 h, 1 mg/mL ([2]; day 1, replicate 1): 99.1%
remaining at 24 h, 1 mg/mL ([2]; day 1, replicate 2): 93.5%
remaining at 24 h, 1 mg/mL ([2]; day 1, replicate 3): 95.5%
remaining at 168 h, 1 mg/mL ([2]; day 7, replicate 1): 90.8%
remaining at 168 h, 1 mg/mL ([2]; day 7, replicate 2): 101%
remaining at 168 h, 1 mg/mL ([2]; day 7, replicate 3): 96.4%
remaining at 336 h, 1 mg/mL ([2]; day 14, replicate 1): 92.6%
remaining at 336 h, 1 mg/mL ([2]; day 14, replicate 2): 95.3%
remaining at 336 h, 1 mg/mL ([2]; day 14, replicate 3): 93.9%
remaining at 672 h, 1 mg/mL ([2]; day 28, replicate 1): 88.5%
remaining at 672 h, 1 mg/mL ([2]; day 28, replicate 2): 95%
remaining at 672 h, 1 mg/mL ([2]; day 28, replicate 3): 92.3%

Compound: FSGKRRKRKPRC [HR97-brimonidine, HR97 peptide conjugated to brimonidine via a quaternary-ammonium traceless linker (MC-Val-Cit-PAB)]
AUClast of cumulative ΔIOP, fold greater compared to brimonidine solution ([3]; 20-day measurement period after ICM injection, n = 5, p < 0.001): ~ 17 fold
time during which mean ΔIOP remained significantly larger than with brimonidine solution or physical mixture ([3]; single ICM injection): up to 14 days
peak ΔIOP at 2 days ([3]; single ICM injection, 200 µg brimonidine equivalent, n = 5): −4.9 ± 0.46 mmHg
time for the mean ΔIOP to return to baseline ([3]; single ICM injection, n = 5 per group): 20 days
duration of IOP lowering ([3]; single ICM injection, normotensive rabbits): up to 18 days
brimonidine released from the conjugate in human aqueous fluid ([2]; 1 mg/mL in human aqueous (donor eyes, 0.02 µm filtered), 37 °C, over 28 days, HPLC 250 nm, normalized to day 0, mean of n = 3): ~ 7%
cathepsin cleavage assay, Cathepsin ([4]; replicate 1): 47
cathepsin cleavage assay, Cathepsin ([4]; replicate 2): 58
cathepsin cleavage assay, Cathepsin ([4]; replicate 3): 42
brimonidine liberated with human cathepsin cocktails ([4]; conjugate 200 μM diluted 1:1 with 100 mM citrate buffer pH 5.5, 5 mM cysteine, cathepsins B, K, L, S 150 nM each, within 48 h, 37 °C, HPLC, normalized to 0 h, n = 3): ~ 52%
brimonidine concentration in aqueous humor [5, 7]: 0.4 ng/g
brimonidine concentration in iris [5, 7]: 980 ng/g
brimonidine concentration in retina [5, 7]: 8.3 ng/g
brimonidine concentration in the aqueous ([5]; day 7 after single ICM injection of HR97-brimonidine): 83.3 ng/g
brimonidine concentration in the aqueous ([5]; day 14 after single ICM injection of HR97-brimonidine): 3.9 ng/g
ocular toxicity, ophthalmologist evaluation on day 7 [6]: no apparent inflammation or fibrin strands
Binding Capacity (mole/mg melanin) [1]: 5.9e-7 mole/mg melanin
Kd [1]: 4.36 µM
increase in the in vitro melanin binding capacity of brimonidine by conjugation to HR97 ([1]; versus brimonidine): ~ 10 fold

Compound: CC12CC3CC(C)(C1)CC(N)(C3)C2 [Memantine]
Binding Capacity (mole/mg melanin) [1]: 2.07e-7 mole/mg melanin
Kd [1]: 804 µM

Compound: COCCc1ccc(OCC(O)CNC(C)C)cc1 (stereo not shown) [Metoprolol]
Binding Capacity (mole/mg melanin) [1]: 2.69E-08 mole/mg melanin
Kd [1]: 495 µM

Results, then the compound that gave them:

Binding Capacity (mole/mg melanin) [1]: 2.61e-6 mole/mg melanin
Kd [1]: 2.13 µM
Compound: CCNCCNC(=O)c1c(C)[nH]c(/C=C2\C(=O)Nc3ccc(F)cc32)c1C [N-Desethyl Sunitinib]

Binding Capacity (mole/mg melanin) [1]: 3.9e-8 mole/mg melanin
Kd [1]: 120 µM
Compound: CC(C)(C)NC[C@H](O)COc1nsnc1N1CCOCC1 [Timolol]

Binding Capacity (mole/mg melanin) [1]: 2.24E-08 mole/mg melanin
Kd [1]: 12.5 µM
Compound: CC1(C)O[C@@H]2C[C@H]3[C@@H]4CCC5=CC(=O)C=C[C@]5(C)[C@@]4(F)[C@@H](O)C[C@]3(C)[C@]2(C(=O)CO)O1 [Triamcinolone Acetonide]
